Literature values as cited in patent US20120122716A1, “CELL LINE DERIVED FROM THE EPITHELIAL LINING OF THE HUMAN ENDOLYMPHATIC SAC IN THE INNER EAR” (priority 2010, published 2012).

Tested on: beta defensin 2
Conditions: HMEEC-1 cells; via Src-dependent Raf-MEK1/2-ERK signaling pathway

B1: IL-1α: interleukin 1 alpha, cytokine (protein, UniProt P01583 113-271, looked up)
Interleukin-1 alpha: SAPFSFLSNVKYNFMRIIKYEFILNDALNQSIIRANDQYLTAAALHNLDEAVKFDMGAYKSSKDDAKITVILRISKTQLYVTAQDEDQPVLLKEMPEIPKTITGSETNLLFFWETHGTKNYFTSVAHPNLFIATKQDYWVCLAGGPPSITDFQILENQA
beta defensin 2 expression: up-regulate
